According to the nanobody polyreactivity screen of Harvey et al. (2022):

Experiment: yeast display, Sf9 membrane polyspecificity reagent, FACS + sequencing; frameworks hold sequencing errors
Summary of the method: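 Using colony PCR, genes from sorted yeast display clones were amplified, then sequenced on MiSeq at 2 × 250 and filtered by CDR length. The clones had been stained with 10% biotinylated, detergent-solubilized Sf9 membrane reagent for 1 hour at 4 °C and sorted by FACS into low and high (top ~1%) gates on anti-HA and streptavidin fluorescence. Polyreactivity labels come from the gate of origin.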

Sequence	polyreactivity (PSR sort gate)
QVQLVESGGGLVQAGGSLRLSCAASGFIFWKNAMGWYRQAPGKERELVAAISWSGGRTYYADSVKGRFTISRDNAKNTVYLQMNSLKPEDTAVYYCNAAGRYKPGAPYDYWGQGTQVTVSS	low polyreactivity
QVQLVESGGGLVQAGGSLRLSCAASGFIFWNYAMGWNRQAPGKERDLVAAISSGGTITKYADSVKGRFTISRDKAKNTVYLQMNSLKPEDTAVYYCNAVVRVRFRKNDYWGQGTQVTVSS	high polyreactivity
QVQLVESGGGLVQAGGSLRLSCAASGFIFWSYAMGWYRQAPGKERELVAAINTSGDSTYYADSVKGRFTISRDNAKYTVYLQMNSLKPEDTAVYSCAAKSSTRGDYWGQGTQVTVSS	low polyreactivity
QVQLVESGGGLVQAGGSLRLSCAASGFIFWSYAMGWYRQAPGKERELVAAISWSGGRTYYADSVKGRFTISRDNAKNTVYLQMNSLKPEDTAVYYCAAVIRYGSQYPALDYWGQGTQVTVSS	high polyreactivity
QVQLVESGGGLVQAGGSLRLSCAASGFIFWTYAMGWYRQAPGKERELVAAITGGGGTTYYADSVKGRFTISRDNAKNTVYLQMNSLKPEDTAVYYCAAKQYRSRSGGYWGQGTQVTVSS	high polyreactivity
QVQLVESGGGLVQAGGSLRLSCAASGFIFWVNAMGWYRQAPGKERELVAAISQSGGTTYYADSVKGRFTISRDNAKNTVYFQMNSLKPEDTAVYYCNALWRGHGRYNYWGQGTQVTVSS	low polyreactivity
QVQLVESGGGLVQAGGSLRLSCAASGFIFWWYGMGWYRPAPGKEREFVAAITQSGSTYYADSVKGRFTISRDNAKNTVYLQMNSLKPEDTAVYYCADVVGRRLYPRYDYWGQGTQVTVSS	high polyreactivity
QVQLVESGGGLVQAGGSLRLSCAASGFIFWWYTMGWYRQAPGKETELVAAITGSGGSTYYADSVKGRFTISRDNAKNTVYLQMNSLKPEDTAVYYCNAVSAYKWQYDYWGQGTQVTVSS	high polyreactivity
QVQLVESGGGLVQAGGSLRLSCAASGFIFWYYAMGWYRPAPGQERELVAAIRRGGSTNYADSVKGRFTISRDNAKNTVYLQMNSLKPEDTAVYYCAADVPRDTFDSWGQGTQVTVSS	low polyreactivity
QVQLVESGGGLVQAGGSLRLSCAASGFIFWYYAMGWYRQAPGKERELVAAISWSGTSTYYADSVKGRFTISRDNAKNTVYLQMNSLKPEDTAVYYCAAGPYSYYPLHAHYDYWGQGTQVTVSS	high polyreactivity
QVQLVESGGGLVQAGGSLRLSCAASGFIFWYYAMGWYRQAPGKERELVAAITSGGSTNYADSVKGRFTISRDNAKNTVYLQMNSLKPEDTAVYYCARPYVTYEYDYWGQGTQVTVSS	low polyreactivity
QVQLVESGGGLVQAGGSLRLSCAASGFIFWYYAMGWYRQAPGKERELVAAITSRGGSTYYADSVKGRFTISSDNAKNTDYLQMNSLKPEDTAVYYCAAKFPSRFYSFVQYYYWGQGTQVTVSS	high polyreactivity
QVQLVESGGGLVQAGGSLRLSCAASGFIFWYYDMGWYRPAPGKEREFVAAITRSSGSTYYADSVKGRFTISRDNAKNTVYLQMNSLKPEDTAVYYCNADSVAYGDEYDYWGQGTQVTVSS	low polyreactivity
QVQLVESGGGLVQAGGSLRLSCAASGFIFYANAMGWYRQAPGKERELVAAITWSGSRTYYADSVKGRFTISRDNAKNTVYLQMNSLKPEDTAVYYCNKDWYVGSFGYPEDYWGQGTQVTVSS	low polyreactivity
QVQLVESGGGLVQAGGSLRLSCAASGFIFYDYAMGWYRQAPGKERELVAAIRSSDGGTYYADSVKGRFTISRDNAKNTVYLQMNSLKPEDTAVYYCAAEIRWGWHPYYDYDEYWGQGTQVTVSS	low polyreactivity
QVQLVESGGGLVQAGGSLRLSCAASGFIFYDYAMGWYRQAPGKERELVAAISSGGSTNYADSVKGRFTISRDNAKNSVYLQMNSLKPEDTAVYYCAADDRSYATWKRDYDYWGQGTQVTVSS	low polyreactivity
QVQLVESGGGLVQAGGSLRLSCAASGFIFYDYAMGWYRQAPGKERELVAAITVDGGTTYYADSVKGRFTISRDNAKNTVYLQMNSLKPEDTAVYYCAADTYYGFDSNYEYWGQGTQVTVSS	low polyreactivity
